From patent US20050260177A1

Tests used:
[1] = biological target: Ra12-C888P fusion protein (human C888P fused to Mycobacterium tuberculosis Ra12); assay: ELISA, RC888P on plate, serum 1:32000, average of 2 wells
[2] = biological target: Ra12-C888P fusion protein (human C888P fused to Mycobacterium tuberculosis Ra12); assay: ELISA, RC888P on plate, serum 1:32000, well 1
[3] = biological target: Ra12-C888P fusion protein (human C888P fused to Mycobacterium tuberculosis Ra12); assay: ELISA, RC888P on plate, serum 1:8000, average of 2 wells
[4] = biological target: Ra12-C888P fusion protein (human C888P fused to Mycobacterium tuberculosis Ra12); assay: ELISA, RC888P on plate, serum 1:2000, well 2
[5] = biological target: Ra12-C888P fusion protein (human C888P fused to Mycobacterium tuberculosis Ra12); assay: ELISA, RC888P on plate, serum 1:512000, average of 2 wells
[6] = biological target: Ra12-C888P fusion protein (human C888P fused to Mycobacterium tuberculosis Ra12); assay: ELISA, RC888P on plate, serum 1:512000, well 1
[7] = biological target: Ra12-C888P fusion protein (human C888P fused to Mycobacterium tuberculosis Ra12); assay: ELISA, RC888P on plate, serum 1:1024000, average of 2 wells
[8] = biological target: Ra12-C888P fusion protein (human C888P fused to Mycobacterium tuberculosis Ra12); assay: ELISA, RC888P on plate, serum 1:32000, well 2
[9] = biological target: Ra12-C888P fusion protein (human C888P fused to Mycobacterium tuberculosis Ra12); assay: ELISA, RC888P on plate, serum 1:1000, average of 2 wells
[10] = biological target: Ra12-C888P fusion protein (human C888P fused to Mycobacterium tuberculosis Ra12); assay: ELISA, RC888P on plate, serum 1:128000, average of 2 wells
[11] = biological target: Ra12-C888P fusion protein (human C888P fused to Mycobacterium tuberculosis Ra12); assay: ELISA, RC888P on plate, serum 1:512000, well 2
[12] = biological target: Ra12-C888P fusion protein (human C888P fused to Mycobacterium tuberculosis Ra12); assay: ELISA, RC888P on plate, serum 1:128000, well 2
[13] = biological target: Ra12-C888P fusion protein (human C888P fused to Mycobacterium tuberculosis Ra12); assay: ELISA, RC888P on plate, serum 1:2000, average of 2 wells
[14] = biological target: Ra12-C888P fusion protein (human C888P fused to Mycobacterium tuberculosis Ra12); assay: ELISA, RC888P on plate, serum 1:4000, well 1
[15] = biological target: Ra12-C888P fusion protein (human C888P fused to Mycobacterium tuberculosis Ra12); assay: ELISA, RC888P on plate, serum 1:128000, well 1
[16] = biological target: Ra12-C888P fusion protein (human C888P fused to Mycobacterium tuberculosis Ra12); assay: ELISA, RC888P on plate, serum 1:1024000, well 1
[17] = biological target: Ra12-C888P fusion protein (human C888P fused to Mycobacterium tuberculosis Ra12); assay: ELISA, RC888P on plate, serum 1:16000, well 2
[18] = biological target: Ra12-C888P fusion protein (human C888P fused to Mycobacterium tuberculosis Ra12); assay: ELISA, RC888P on plate, serum 1:1000, well 1
[19] = biological target: Ra12-C888P fusion protein (human C888P fused to Mycobacterium tuberculosis Ra12); assay: ELISA, RC888P on plate, serum 1:16000, well 1
[20] = biological target: Ra12-C888P fusion protein (human C888P fused to Mycobacterium tuberculosis Ra12); assay: ELISA, RC888P on plate, serum 1:8000, well 1
[21] = biological target: Ra12-C888P fusion protein (human C888P fused to Mycobacterium tuberculosis Ra12); assay: ELISA, RC888P on plate, serum 1:4000, well 2
[22] = biological target: Ra12-C888P fusion protein (human C888P fused to Mycobacterium tuberculosis Ra12); assay: ELISA, RC888P on plate, serum 1:256000, well 2
[23] = biological target: Ra12-C888P fusion protein (human C888P fused to Mycobacterium tuberculosis Ra12); assay: ELISA, RC888P on plate, serum 1:1000, well 2
[24] = biological target: Ra12-C888P fusion protein (human C888P fused to Mycobacterium tuberculosis Ra12); assay: ELISA, RC888P on plate, serum 1:64000, well 1
[25] = biological target: Ra12-C888P fusion protein (human C888P fused to Mycobacterium tuberculosis Ra12); assay: ELISA, RC888P on plate, serum 1:4000, average of 2 wells
[26] = biological target: Ra12-C888P fusion protein (human C888P fused to Mycobacterium tuberculosis Ra12); assay: ELISA, RC888P on plate, serum 1:1024000, well 2
[27] = biological target: Ra12-C888P fusion protein (human C888P fused to Mycobacterium tuberculosis Ra12); assay: ELISA, RC888P on plate, serum 1:64000, well 2
[28] = biological target: Ra12-C888P fusion protein (human C888P fused to Mycobacterium tuberculosis Ra12); assay: ELISA, RC888P on plate, serum 1:64000, average of 2 wells
[29] = biological target: Ra12-C888P fusion protein (human C888P fused to Mycobacterium tuberculosis Ra12); assay: ELISA, RC888P on plate, serum 1:8000, well 2
[30] = biological target: Ra12-C888P fusion protein (human C888P fused to Mycobacterium tuberculosis Ra12); assay: ELISA, RC888P on plate, serum 1:16000, average of 2 wells
[31] = biological target: Ra12-C888P fusion protein (human C888P fused to Mycobacterium tuberculosis Ra12); assay: ELISA, RC888P on plate, serum 1:256000, average of 2 wells
[32] = biological target: Ra12-C888P fusion protein (human C888P fused to Mycobacterium tuberculosis Ra12); assay: ELISA, RC888P on plate, serum 1:256000, well 1
[33] = biological target: Ra12-C888P fusion protein (human C888P fused to Mycobacterium tuberculosis Ra12); assay: ELISA, RC888P on plate, serum 1:2000, well 1

Work on Preimmune sera (antibody) yielded an ELISA absorbance at 450 nm [1] of 0.06 OD450, an ELISA absorbance at 450 nm [2] of 0.06 OD450 and an ELISA absorbance at 450 nm [3] of 0.06 OD450. For the same substance, the ELISA absorbance at 450 nm [4] was 0.05 OD450, the ELISA absorbance at 450 nm [5] was 0.06 OD450 and the ELISA absorbance at 450 nm [6] was 0.06 OD450. The ELISA absorbance at 450 nm [7] was 0.06 OD450, the ELISA absorbance at 450 nm [8] was 0.05 OD450 and the ELISA absorbance at 450 nm [9] was 0.07 OD450. It also gave an ELISA absorbance at 450 nm [10] of 0.06 OD450, an ELISA absorbance at 450 nm [11] of 0.05 OD450 and an ELISA absorbance at 450 nm [12] of 0.06 OD450. The ELISA absorbance at 450 nm [13] was 0.06 OD450, the ELISA absorbance at 450 nm [14] was 0.06 OD450 and the ELISA absorbance at 450 nm [15] was 0.06 OD450. It also gave an ELISA absorbance at 450 nm [16] of 0.06 OD450, an ELISA absorbance at 450 nm [17] of 0.05 OD450 and an ELISA absorbance at 450 nm [18] of 0.09 OD450. It also gave an ELISA absorbance at 450 nm [19] of 0.06 OD450, an ELISA absorbance at 450 nm [20] of 0.06 OD450 and an ELISA absorbance at 450 nm [21] of 0.05 OD450. For the same substance, the ELISA absorbance at 450 nm [22] was 0.06 OD450, the ELISA absorbance at 450 nm [23] was 0.06 OD450 and the ELISA absorbance at 450 nm [24] was 0.06 OD450. The ELISA absorbance at 450 nm [25] was 0.06 OD450, the ELISA absorbance at 450 nm [26] was 0.06 OD450 and the ELISA absorbance at 450 nm [27] was 0.05 OD450. For the same substance, the ELISA absorbance at 450 nm [28] was 0.06 OD450, the ELISA absorbance at 450 nm [29] was 0.06 OD450 and the ELISA absorbance at 450 nm [30] was 0.06 OD450. For the same substance, the ELISA absorbance at 450 nm [31] was 0.06 OD450, the ELISA absorbance at 450 nm [32] was 0.06 OD450 and the ELISA absorbance at 450 nm [33] was 0.06 OD450.
